US20230212306A1 (Daiichi Sankyo, published 2023)

Key:
[1] = target: T1, rat TLR7-Flag, expressed in HEK293 cells (rat, UniProt P58681 27-1050 (mouse entry)); assay: flow cytometry on fixed and permeabilised HEK293 cells expressing rat TLR7-Flag
T1 construct: not shown: Flag tag
T1 chain: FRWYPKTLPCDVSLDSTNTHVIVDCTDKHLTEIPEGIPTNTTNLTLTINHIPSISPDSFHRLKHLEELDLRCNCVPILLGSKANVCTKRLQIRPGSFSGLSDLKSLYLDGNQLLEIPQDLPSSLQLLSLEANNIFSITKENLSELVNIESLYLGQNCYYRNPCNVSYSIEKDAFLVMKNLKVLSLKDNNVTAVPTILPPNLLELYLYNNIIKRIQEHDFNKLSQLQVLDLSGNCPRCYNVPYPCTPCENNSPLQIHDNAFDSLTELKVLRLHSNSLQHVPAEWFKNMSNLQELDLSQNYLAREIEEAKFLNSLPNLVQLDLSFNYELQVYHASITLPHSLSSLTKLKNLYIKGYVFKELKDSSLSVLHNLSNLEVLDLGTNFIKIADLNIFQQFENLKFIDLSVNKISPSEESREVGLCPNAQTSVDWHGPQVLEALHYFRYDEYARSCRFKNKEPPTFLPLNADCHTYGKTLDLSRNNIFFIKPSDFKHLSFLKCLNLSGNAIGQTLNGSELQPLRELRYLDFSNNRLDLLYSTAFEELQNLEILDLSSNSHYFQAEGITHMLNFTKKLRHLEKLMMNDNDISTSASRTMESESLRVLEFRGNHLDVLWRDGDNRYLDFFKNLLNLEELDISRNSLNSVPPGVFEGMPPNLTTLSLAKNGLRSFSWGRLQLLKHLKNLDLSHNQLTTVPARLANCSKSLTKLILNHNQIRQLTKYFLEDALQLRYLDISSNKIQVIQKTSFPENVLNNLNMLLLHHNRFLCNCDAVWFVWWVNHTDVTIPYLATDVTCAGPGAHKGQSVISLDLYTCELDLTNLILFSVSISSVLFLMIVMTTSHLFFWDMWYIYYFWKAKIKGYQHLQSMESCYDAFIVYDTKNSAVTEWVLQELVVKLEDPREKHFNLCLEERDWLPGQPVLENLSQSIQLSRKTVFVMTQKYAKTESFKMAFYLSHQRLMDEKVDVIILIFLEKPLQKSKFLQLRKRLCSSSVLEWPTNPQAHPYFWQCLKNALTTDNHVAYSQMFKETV
Source text: (§1) The HEK293 cells expressing human TLR7 (variant 1)-Flag prepared in 8)-1, the HEK293 cells expressing human TLR7 (variant 2)-Flag prepared in 8)-2, the HEK293 cells expressing monkey TLR7-Flag prepared in 8)-3, the HEK293 cells expressing mouse TLR7-Flag prepared in 8)-4, and the HEK293 cells expressing rat TLR7-Flag prepared in 8)-5 were immobilized/subjected to membrane permeation with a Fixation and Permeabilization Solution (Becton, Dickinson and Company) and thereafter stained using huAT01_H3L2_IgG1LALA, which is one of the humanized anti-human TLR7 antibodies, and ALEXA FLUOR® 647 AffiniPure Goat anti-human IgG+IgM (H+L) (Jackson ImmunoResearch Inc.), which is the secondary antibody.
(§2) The binding of the humanized anti-human TLR7 antibody to human TLR7 was detected based on flow cytometry (Miltenyi Biotec K.K.), and the data was analyzed using software (Flowjo) which analyzes the data of flow cytometry.

[2] = target: T2, mouse TLR7-Flag, expressed in HEK293 cells (mouse, UniProt P58681 27-1050); assay: flow cytometry on fixed and permeabilised HEK293 cells expressing mouse TLR7-Flag
T2 construct: not shown: Flag tag
T2 sequence: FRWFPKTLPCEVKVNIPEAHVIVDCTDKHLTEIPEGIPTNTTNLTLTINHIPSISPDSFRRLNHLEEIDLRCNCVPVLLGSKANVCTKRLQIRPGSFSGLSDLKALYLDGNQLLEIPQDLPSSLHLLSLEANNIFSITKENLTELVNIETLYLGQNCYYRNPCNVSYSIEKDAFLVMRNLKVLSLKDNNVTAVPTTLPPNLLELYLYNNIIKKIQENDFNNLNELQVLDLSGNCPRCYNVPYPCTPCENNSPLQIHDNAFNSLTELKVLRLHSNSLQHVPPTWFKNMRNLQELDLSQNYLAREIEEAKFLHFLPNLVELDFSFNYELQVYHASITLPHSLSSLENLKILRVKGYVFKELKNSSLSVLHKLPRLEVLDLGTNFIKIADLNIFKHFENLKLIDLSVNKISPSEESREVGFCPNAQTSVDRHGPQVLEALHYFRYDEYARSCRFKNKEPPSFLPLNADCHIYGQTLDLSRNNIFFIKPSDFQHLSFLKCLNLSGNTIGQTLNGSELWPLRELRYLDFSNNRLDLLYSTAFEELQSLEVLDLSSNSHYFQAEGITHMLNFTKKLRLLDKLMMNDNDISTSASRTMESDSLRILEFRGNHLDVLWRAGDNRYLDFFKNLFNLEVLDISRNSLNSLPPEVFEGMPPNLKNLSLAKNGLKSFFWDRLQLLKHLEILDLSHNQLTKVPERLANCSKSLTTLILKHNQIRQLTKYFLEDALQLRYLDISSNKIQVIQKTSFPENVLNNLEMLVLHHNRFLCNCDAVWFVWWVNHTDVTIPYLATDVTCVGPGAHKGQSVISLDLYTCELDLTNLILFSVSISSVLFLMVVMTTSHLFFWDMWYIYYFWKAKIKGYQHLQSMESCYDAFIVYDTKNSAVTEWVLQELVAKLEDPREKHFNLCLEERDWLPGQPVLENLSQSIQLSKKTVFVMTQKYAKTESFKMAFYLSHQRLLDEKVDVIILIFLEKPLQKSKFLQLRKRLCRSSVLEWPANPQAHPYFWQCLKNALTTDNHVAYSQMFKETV
Source text: as §1, §2

B1: huAT01_H3L2_IgG1LALA antibody (antibody, V domains shown)
VH: QVQLVQSGAEVKKPGASVKVSCKASGYTFTNNWLHWVRQAPGQGLEWMGDIYPSNGRTNYAQKFQGRVTLTVDKSTSTAYMELSSLRSEDTAVYFCARERGYFDYWGQGTLVTVSS
VL: DIQMTQSPSSLSASVGDRVTITCKASQDINKYIAWYQQKPGKAPKLLIHYTSTLQPGIPSRFSGSGSGRDYTLTISSLQPEDFATYYCLQYDYLLTFGQGTKVEIKR
notes: Humanized AT01; heavy huAT01_H3_IgG1LALA, light huAT01_L2
- binding result [1]: no binding
- binding result [2]: no binding
